# Target: thrombin (UniProt P00734;P00734 328-363;364-622)
# Test: SERS mapping on gold nanopillars; thrombin 0.0873-87.3 nM; complex bands 822, 1140, 1558 cm-1; no Kd given; Thiolated aptamer on gold-coated Si nanopillars, MCH passivation (stated for quadruplex control); PBS pH 7.4 listed; thrombin incubation buffer and temperature
binder,measurement,value
"GGTTGGTGTGGTTGG (structured_DNA, 5'-HS-(CH2)6 thiol linker (printed HS-(CH2)5-CH2-D/)) [TBA15 (thiolated thrombin-binding aptamer)]",binding result,binds

# Reference: publication PMC5884298
